According to patent US20190015473A1 (MIT, published 2019):

Target: T1, Sin3A, endogenous in Neuro2A cells (UniProt Q60520 1-1274, limits assumed)
T1 sequence (looked up): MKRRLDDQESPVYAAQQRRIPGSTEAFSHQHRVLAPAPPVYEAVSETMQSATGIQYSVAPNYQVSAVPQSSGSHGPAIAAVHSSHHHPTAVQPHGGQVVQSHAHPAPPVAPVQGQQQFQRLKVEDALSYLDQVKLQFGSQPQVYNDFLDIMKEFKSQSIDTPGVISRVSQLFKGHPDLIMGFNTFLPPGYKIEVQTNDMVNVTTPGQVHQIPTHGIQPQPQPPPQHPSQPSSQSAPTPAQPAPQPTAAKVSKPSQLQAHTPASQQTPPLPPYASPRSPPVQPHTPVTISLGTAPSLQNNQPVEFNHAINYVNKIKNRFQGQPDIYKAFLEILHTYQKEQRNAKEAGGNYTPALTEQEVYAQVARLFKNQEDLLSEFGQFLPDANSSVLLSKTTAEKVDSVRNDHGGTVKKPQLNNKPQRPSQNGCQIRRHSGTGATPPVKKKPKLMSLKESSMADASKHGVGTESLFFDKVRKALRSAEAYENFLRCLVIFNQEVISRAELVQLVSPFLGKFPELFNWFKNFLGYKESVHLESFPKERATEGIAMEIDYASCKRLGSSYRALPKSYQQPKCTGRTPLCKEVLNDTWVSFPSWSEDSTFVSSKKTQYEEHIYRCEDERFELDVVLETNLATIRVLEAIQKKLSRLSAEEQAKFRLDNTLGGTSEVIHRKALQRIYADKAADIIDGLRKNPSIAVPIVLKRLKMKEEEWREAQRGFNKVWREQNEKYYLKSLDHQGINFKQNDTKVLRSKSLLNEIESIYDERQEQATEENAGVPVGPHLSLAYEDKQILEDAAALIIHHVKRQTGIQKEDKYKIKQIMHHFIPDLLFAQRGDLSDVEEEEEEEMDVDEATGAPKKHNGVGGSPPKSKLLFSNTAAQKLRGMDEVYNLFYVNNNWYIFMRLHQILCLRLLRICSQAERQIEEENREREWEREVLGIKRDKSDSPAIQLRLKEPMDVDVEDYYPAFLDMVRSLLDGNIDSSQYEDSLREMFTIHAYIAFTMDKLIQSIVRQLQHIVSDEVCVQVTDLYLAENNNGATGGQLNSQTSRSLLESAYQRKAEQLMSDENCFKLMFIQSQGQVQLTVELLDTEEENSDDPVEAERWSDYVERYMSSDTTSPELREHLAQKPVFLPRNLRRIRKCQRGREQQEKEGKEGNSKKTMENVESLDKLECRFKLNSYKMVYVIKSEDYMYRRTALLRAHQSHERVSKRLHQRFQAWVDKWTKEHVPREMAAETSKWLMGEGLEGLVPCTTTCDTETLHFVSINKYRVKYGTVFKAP
Test: co-immunoprecipitation (anti-Flag) from transfected N2A cells, western blot
Method: Brain tissues or cell pellets were lysed in 50 mM Tris-HCl (pH8.0), 150 mM NaCl, 1 mM EDTA, 1% NP-40, and complete protease inhibitor cocktail (Roche) with 20 strokes using the Dounce tight homogenizer. After centrifugation at 10000×g twice for 10 min, supernatants were subjected to co-immunoprecipitation or western blot analysis (Bio-rad). Two micrograms of anti-HDAC2 antibody (ab12169) or 15 μL of anti-Flag M2 affinity gels (Sigma) were used for immunoprecipitations. The antibodies used for immunoblotting were anti-HDAC2 (1 μg/mL, ab12169), anti-Sp3 (1 μg/mL, sc-644 X), anti-Sin3A (1 μg/mL, Abcam; ab3479), and […] (1:500, Sigma; F2043).
If the divergent C-terminus of HDAC2 alone is capable of binding to Sp3, the HDAC2-Sp3 interaction may potentially be inhibited through over-expression of this domain. To test this, the C-terminal domain of either HDAC2 (termed 2C) or HDAC1 (termed 1C) fused with mCherry, or mCherry alone, was transfected into neuronal N2A cells. Using co-IP experiments it was shown that 2C, but not 1C or mCherry alone, robustly bound to endogenous Sp3 (FIG. 6A). Importantly, binding of 2C to Sin3A, a well characterized partner of the HDAC1/2 complexes that controls cell cycle progression, was not detected.

binding result: no binding
B1: C-terminal domain of HDAC2 (termed 2C) fused with mCherry, flag-tagged (other, UniProt Q92769 390-488, looked up)
chain: VHEDSGDEDGEDPDKRISIRASDKRIACDEEFSDSEDEGEGGRRNVADHKKGAKKARIEEDKKETEDKKTDVKEEDKSKDNSGEKTDTKGTKSEQLSNP
notes: The part order follows the printed name 'mCherry-2C'; the Flag position is unknown; also called mCherry-2C; HDAC2 C-terminal fragment (2C); not shown: Flag tag; mCherry (engineered red fluorescent protein)
